Reference: PMC7693276

Biological target: central subunit ND3 of Y. lipolytica complex I (Y. lipolytica) (UniProt Q9B6C7)
UniProt Q9B6C7, sequence (Q9B6C7 whole entry, one chain of several): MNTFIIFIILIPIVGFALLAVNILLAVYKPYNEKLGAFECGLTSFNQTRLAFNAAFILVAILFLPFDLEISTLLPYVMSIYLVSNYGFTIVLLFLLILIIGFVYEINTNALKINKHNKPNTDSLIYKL

| Substance | complex I activity (Q reductase activity), residual rate of the mutant [%] |
| --- | --- |
| accessory subunit LYRM6 (NDUFA6) mutant F89A of Y. lipolytica complex I (natural protein) | < 25 |
| accessory subunit LYRM6 (NDUFA6) mutant L42A of Y. lipolytica complex I (natural protein) | < 25 |
| accessory subunit LYRM6 (NDUFA6) mutant Y43A of Y. lipolytica complex I (natural protein) | < 25 |
